# Numbering of substitutions follows the chain as printed. Names and notes keep the numbering of the source. Values joined by “and” are separate entries in the source; they are usually repeats but may differ in a detail not shown here. Identical values can stand only once. Like-named read-outs stand apart in the source and are kept apart here.
# B1: FGF21: native full length mature FGF21 protein (protein, listed as Homo sapiens)
# chain: HPIPDSSPLLQFGGQVRQRYLYTDDAQQTEAHLEIREDGTVGGAADQSPESLLQLKALKPGVIQILGVKTSRFLCQRPDGALYGSLHFDPEACSFRELLLEDGYNVYQSEAHGLPLHLPGNKSPHRDPAPRGPARFLPLPGLPPALPEPPGILAPQPPDVGSSDPLSMVGPSQGRSPSYAS
# B2: 0278-1A: fusion of the N-terminus of FGF21 and C-terminal peptide FGF19 A26 (protein, listed as Homo sapiens)
# chain: HPIPDSSPLLQFGGQVRQRYLYTDDAQQTEAHLEIREDGTVGGAADQSPESLLQLKALKPGVIQILGVKTSRFLCQRPDGALYGSLHFDPEACSFRELLLEDGYNVYQSEAHGLPLHLPGNKSPHRDPAPRGPARFLPLPGLPPALPEPPGILAPQLETDSMDPFGLVTGLEAVRSPSFEA
# B3: V2-0278-1A: 0278-1A with A31C, G43C, L98D, L100K, N121D, D127K (protein, listed as Homo sapiens)
# chain: B2 chain with A31C, G43C, L98D, L100K, N121D, D127K
# B4: FGF21 486K: analog of FGF21 486A where the C-terminal alanine is replaced with a lysine (protein)
# chain: HPIPDSSPLLQFGGQVRQRYLYTDDAQQTECHLEIREDGTVGCAADQSPESLLQLKALKPGVIQILGVKTSRFLCQRPDGALYGSLHFDPEACSFREDLKEDGYNVYQSEAHGLPLHLPGDKSPHRKPAPRGPARFLPLPGLPPALPEPPGILAPQPPDVGSSDPFGLVGPSQGRSPSFEK
# B5: FGF21 480K: analog of FGF21 480A where the C-terminal alanine is replaced with a lysine (protein)
# chain: B4 chain with G161F, S163M
# B6: FGF21 470A: modified FGF21 N-terminus fused to peptide 0470 (protein, listed as Homo sapiens)
# chain: B4 chain with S163M, P171R, K181A
# B7: FGF21 431K: analog of FGF21 431A where the C-terminal alanine is replaced with a lysine (protein)
# chain: B4 chain with S163M
# B8: FGF21 480A: modified FGF21 N-terminus fused to peptide 0480 (protein, listed as Homo sapiens)
# chain: B4 chain with G161F, S163M, K181A
# B9: FGF21 470K: analog of FGF21 470A where the C-terminal alanine is replaced with a lysine (protein)
# chain: B4 chain with S163M, P171R
# B10: FGF21 431A: FGF21 N-terminus (A31C, G43C, L98D, L100K, N121D, D127K) fused to peptide 0431 (protein, listed as Homo sapiens)
# chain: B4 chain with S163M, K181A
# B11: FGF21 486A: modified FGF21 N-terminus fused to peptide 0486 (protein, listed as Homo sapiens)
# chain: B4 chain with K181A
# Columns and labels:
# FGF21 receptor = assay: Erk1/2 phosphorylation assay: agonist activity in 293T HEK hKLB cells; format: cell-based, human; settings: for IC50: full length FGF21 analogs, tested in triplicate
# Protocol: Cells were cultured in 10% Fetal Bovine Serum containing DMEM High glucose GLUTAMAX® at 37 C, 95% humidity, 5% CO2. For generating the cell line with stable expression, human KLB gene was synthesized by Genscript and subcloned into pcDNA3.1(+) with ZEOCIN® resistance vector (INVITROGEN®) by NheI and NotI restriction enzyme sites. HEK 293T cells were obtained from ATCC and were transiently transfected at 80% confluency using Lipofectamine 3000 (Invitrogen). Selection for KLB-expressing cells was initiated 48 hours post-transfection in the growth media containing 100 μg/ml of ZEOCIN® (Gibco) and continued for 4 weeks with fresh media added every third day. Human KLB expression in pooled cells was confirmed by Western blot and a functional FGF21 MAPK phosphorylation assay.
# 293 HEK cells expressing hKLB were plated to 90% confluency in 96 well plates coated with poly-D-Lysine. Cells were serum starved for three hours in 0.1% BSA containing media prior to stimulation with protein and/or an antagonist peptide for ten minutes at 37° C. The cell lysate was used for the detection of phospho-Erk1/2 levels by AlphaSureFire kit using the prescribed protocol. The degree of biochemical activation was recorded and analyzed using Origin software by logistic curve fitting. Tests at each concentration were done in triplicates, and the standard deviation is as shown in the graphs. The calculation of maximal activities was done keeping the FGF21 157-181 or FGF19 169-194 peptide activity as standard. The difference between the Erk1/2 phosphorylation signal for the highest (10 μM) and the lowest (0 μM) tested dose for native peptide was considered as 100% and accordingly all the other values were assigned.
# mouse KLB = target: T1, mouse KLB (Mus musculus, UniProt P16092+Q99N32); assay: agonism in cells overexpressing mouse KLB; format: cell-based; settings: FIG. 11B, read-out: potency (agonism)
# T1 construct: expressed in transfected cells
# [1] = in vivo administration of FGF analogs to mice on diabetogenic diet; design: species or system C57Bl/6 mice; settings: 0.3 or 1.0 mg/kg daily subcutaneous, relative to native FGF21; for change in body weight: 6 days
# Protocol: C57Bl/6 mice were obtained from Jackson Laboratories and fed a diabetogenic diet from Research Diets: a high-sucrose diet with 58% kcal from fat. Mice were group-housed on a 12:12-h light-dark cycle at 22° C. with free access to food and water. All studies were approved by and performed according to the guidelines of the Institutional Animal Care and Use Committee of the University of Cincinnati. All mice were treated by daily subcutaneous injections delivered in physiologically buffered saline at a dose of 0.3 or 1 mg/kg. Animals were weighed and food consumption was measured each day.
# Unless indicated otherwise, all statistical analyses were performed using GraphPad Prism. The analysis of the results obtained in the in vivo experiments was performed using one-way ANOVAs followed by Tukey post hoc tests. P values lower than 0.05 were considered significant. The results are presented as means±s.e.m. of 7-8 replicates per group. Receptor activation data is ±s.d.
# The effect of FGF analog V2-0278-1A on mice was investigated by administering either vehicle, FGF21 (at 0.3 mg/kg or 1.0 mg/kg) or V2-0278-1A (at 0.3 mg/kg or 1.0 mg/kg) and monitoring weight over the course of 6 days of treatment.
# [2] = FIG. 11A, cells overexpressing human KLB, read-out: potency (agonism)
# [3] = FIGS. 9A/9B, full length proteins, Erk1/2 phosphorylation, read-out: EC-50
# [4] = FIG. 12, cells overexpressing human KLB, read-out: potency
# T1 sequence (Q99N32 whole entry): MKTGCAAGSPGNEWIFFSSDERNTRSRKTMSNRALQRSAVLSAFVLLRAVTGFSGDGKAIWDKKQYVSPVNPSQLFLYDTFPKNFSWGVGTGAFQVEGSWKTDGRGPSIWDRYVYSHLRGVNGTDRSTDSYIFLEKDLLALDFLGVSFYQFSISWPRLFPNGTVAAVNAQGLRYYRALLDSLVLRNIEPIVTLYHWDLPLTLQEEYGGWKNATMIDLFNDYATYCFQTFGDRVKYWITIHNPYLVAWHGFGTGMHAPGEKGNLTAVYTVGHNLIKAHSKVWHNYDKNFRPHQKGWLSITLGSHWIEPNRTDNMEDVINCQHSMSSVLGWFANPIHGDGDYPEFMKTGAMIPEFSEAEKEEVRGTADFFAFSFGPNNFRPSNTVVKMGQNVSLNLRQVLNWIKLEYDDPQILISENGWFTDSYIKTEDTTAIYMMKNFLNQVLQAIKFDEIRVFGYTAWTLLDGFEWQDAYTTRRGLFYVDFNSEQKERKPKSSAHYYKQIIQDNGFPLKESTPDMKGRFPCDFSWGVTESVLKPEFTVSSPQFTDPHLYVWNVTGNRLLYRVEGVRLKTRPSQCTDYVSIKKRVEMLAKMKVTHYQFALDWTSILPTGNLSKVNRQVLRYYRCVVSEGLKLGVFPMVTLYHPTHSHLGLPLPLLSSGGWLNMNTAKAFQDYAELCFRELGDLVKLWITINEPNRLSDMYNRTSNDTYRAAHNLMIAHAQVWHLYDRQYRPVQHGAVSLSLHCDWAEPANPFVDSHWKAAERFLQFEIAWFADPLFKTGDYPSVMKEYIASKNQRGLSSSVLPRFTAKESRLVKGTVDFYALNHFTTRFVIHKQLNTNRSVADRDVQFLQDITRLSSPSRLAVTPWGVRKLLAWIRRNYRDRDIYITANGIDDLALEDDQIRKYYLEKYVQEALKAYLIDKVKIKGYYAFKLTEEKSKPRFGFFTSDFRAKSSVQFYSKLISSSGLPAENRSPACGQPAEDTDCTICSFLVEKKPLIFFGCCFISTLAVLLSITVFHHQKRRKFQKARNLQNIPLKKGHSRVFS
# T1 sequence (P16092 22-822): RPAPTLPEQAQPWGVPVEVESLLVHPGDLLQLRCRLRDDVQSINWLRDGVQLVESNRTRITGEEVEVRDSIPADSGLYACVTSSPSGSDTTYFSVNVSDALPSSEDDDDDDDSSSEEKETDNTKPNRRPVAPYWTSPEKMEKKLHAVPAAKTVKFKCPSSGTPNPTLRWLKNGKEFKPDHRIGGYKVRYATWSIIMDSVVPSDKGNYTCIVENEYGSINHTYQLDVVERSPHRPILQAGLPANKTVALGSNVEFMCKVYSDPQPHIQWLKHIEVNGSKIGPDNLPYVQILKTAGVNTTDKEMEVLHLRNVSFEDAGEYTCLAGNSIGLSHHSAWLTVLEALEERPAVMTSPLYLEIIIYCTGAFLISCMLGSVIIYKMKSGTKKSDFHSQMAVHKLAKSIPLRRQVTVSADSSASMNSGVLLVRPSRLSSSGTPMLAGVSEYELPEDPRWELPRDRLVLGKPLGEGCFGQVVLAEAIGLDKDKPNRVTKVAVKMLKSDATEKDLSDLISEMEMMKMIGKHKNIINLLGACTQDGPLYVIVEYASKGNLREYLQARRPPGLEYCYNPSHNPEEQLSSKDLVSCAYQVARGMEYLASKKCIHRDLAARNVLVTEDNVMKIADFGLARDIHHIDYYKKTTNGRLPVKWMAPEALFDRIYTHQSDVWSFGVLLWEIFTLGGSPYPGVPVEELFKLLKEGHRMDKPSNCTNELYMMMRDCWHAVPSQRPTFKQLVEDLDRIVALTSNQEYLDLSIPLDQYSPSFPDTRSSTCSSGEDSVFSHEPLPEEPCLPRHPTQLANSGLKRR
# Chain of FGF21 receptor (Q86Z14 whole entry): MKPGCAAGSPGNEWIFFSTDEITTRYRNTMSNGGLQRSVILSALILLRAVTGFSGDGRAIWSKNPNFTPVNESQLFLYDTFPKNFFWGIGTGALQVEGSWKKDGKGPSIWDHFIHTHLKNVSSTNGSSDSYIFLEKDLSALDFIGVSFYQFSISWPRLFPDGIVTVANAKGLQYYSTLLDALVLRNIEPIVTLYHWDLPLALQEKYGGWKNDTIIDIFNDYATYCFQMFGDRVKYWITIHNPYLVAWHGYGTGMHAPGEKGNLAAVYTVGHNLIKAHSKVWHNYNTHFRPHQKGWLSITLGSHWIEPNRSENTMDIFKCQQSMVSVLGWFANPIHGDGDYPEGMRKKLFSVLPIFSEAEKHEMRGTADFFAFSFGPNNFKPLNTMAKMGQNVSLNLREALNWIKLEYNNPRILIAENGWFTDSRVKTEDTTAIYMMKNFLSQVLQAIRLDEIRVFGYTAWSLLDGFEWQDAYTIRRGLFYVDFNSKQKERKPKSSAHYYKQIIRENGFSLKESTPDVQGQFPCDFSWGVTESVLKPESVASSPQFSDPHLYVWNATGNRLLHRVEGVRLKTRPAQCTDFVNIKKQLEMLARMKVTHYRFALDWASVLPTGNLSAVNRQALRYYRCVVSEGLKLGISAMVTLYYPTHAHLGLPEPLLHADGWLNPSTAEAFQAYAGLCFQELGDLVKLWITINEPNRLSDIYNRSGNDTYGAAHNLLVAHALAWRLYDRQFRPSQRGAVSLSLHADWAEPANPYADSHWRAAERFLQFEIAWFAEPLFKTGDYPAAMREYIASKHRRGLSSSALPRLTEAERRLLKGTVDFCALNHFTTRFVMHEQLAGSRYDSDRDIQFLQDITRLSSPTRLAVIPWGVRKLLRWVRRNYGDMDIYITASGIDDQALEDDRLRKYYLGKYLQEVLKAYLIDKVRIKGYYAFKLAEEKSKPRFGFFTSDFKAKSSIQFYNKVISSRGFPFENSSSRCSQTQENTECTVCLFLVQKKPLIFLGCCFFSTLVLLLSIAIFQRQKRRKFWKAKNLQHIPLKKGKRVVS
molecule,measurement,setting,value
FGF19: native full length FGF19 protein [reference compound],EC50,FGF21 receptor; [2],65.8 ± 58.2 nM
same,% maximal activity,"FGF21 receptor; FIGS. 9A/9B, full length proteins, Erk1/2 phosphorylation",27%
same,EC50,FGF21 receptor; [3],148 nM
same,EC50,mouse KLB,25.7 ± 21.3 nM
B1,EC50,FGF21 receptor; [2],8.42 ± 4.1 nM
same,EC50,FGF21 receptor; [3],4.5 nM and 3.3 nM
same,EC50,mouse KLB,3.96 ± 1.51 nM
B2,EC50,FGF21 receptor; [2],1.82 ± 0.37 nM
same,EC50,FGF21 receptor; [4],1.13 ± 0.28 nM
same,EC50,mouse KLB,2.15 ± 0.54 nM
B3,EC50,FGF21 receptor; [4],0.35 ± 0.12 nM
same,fold higher potency versus 0278-1A,FGF21 receptor; cells overexpressing human KLB,2-3 ×
same,change in body weight,[1],enhanced weight loss
same,change in body weight,[1]; listed as 0361,superior change in body weight
same,food intake,[1],reduced food intake
same,food intake,[1]; listed as 0361,greater reduction in total food intake
B4,IC50,FGF21 receptor,3.16 ± 0.56 nM
B5,IC50,FGF21 receptor,1.62 ± 0.54 nM
B6,IC50,FGF21 receptor,0.61 ± 0.06 nM
B7,IC50,FGF21 receptor,4.3 ± 0.07 nM
B8,IC50,FGF21 receptor,0.43 ± 0.04 nM
B9,IC50,FGF21 receptor,6.14 ± 1.93 nM
B10,IC50,FGF21 receptor,0.51 ± 0.21 nM
B11,IC50,FGF21 receptor,0.21 ± 0.03 nM

# Source: US11351268B2, “FGF21 C-terminal peptide optimization” (INDIANA UNIVERSITY RESEARCH AND TECHNOLOGY CORPORATION, priority 2016, dated 2022)
